Measurements published in patent publication US5962253A, “Oxidative decarboxylation of peptides catalyzed by flavoprotein EpiD” (Boehringer Ingelheim International GmbH, priority 1996, dated 1999).
Non-standard residues stand in square brackets, D forms with d. No end group written: not given here. hCys = N[C@@H](CCS)C(=O)O

What was measured:
[1] = molecular target: EpiD (Staphylococcus epidermidis, UniProt P30197); conditions: cited from earlier work; for Reaction with EpiD: reducing conditions, reversed phase chromatography and ES-MS
[2] = molecular target: T1, flavoprotein EpiD (Staphylococcus epidermidis, UniProt P30197); assay: EpiD enzyme assay, oxidative decarboxylation of single peptides (reversed phase chromatography, ES-MS); format: biochemical, Staphylococcus epidermis; design: key to Reaction with EpiD: +: reaction with EpiD; -: no reaction with EpiD occurred, this indicates that using the given assay conditions, no reaction product was detected; conditions: for Reaction with EpiD: single peptide determinations, 0.5-1 h at 37° C., pH 8.0, 3 mM dithiothreitol; for substrate of EpiD / reaction with EpiD (in words): single peptides
T1 construct: made in house; host or cells: E. coli K38 (pGP1-2, pT7-5epiD)
Description: For the determination of the minimal size of the substrate, synthetic peptides with increasingly larger deletions of the amino terminus were used (Table 1). Reaction products were identified by their increasing hydrophobicity, increased absorption at 260 nm in 0.1% trifluoroacetic acid/H2 O/acetonitrile (FIGS. 19A and 19B), and the mass decrease of 46 Da as compared with the unmodified peptides. […] For a further study of the substrate specificity of EpiD, the heptapeptide SFNSYCC (SEQ ID NO: 2) was used. The serine and cysteine residues of the peptide SFNSYCC (SEQ ID NO: 2) form the COOH-terminal bicyclus of mature epidermin, and the possibility could not be excluded that amino acid exchanges in this peptide have an influence on the reaction with EpiD.
The method of the invention, which provides for the oxidative decarboxylation of a peptide, can be carried out in vitro under the following conditions, although it will be clear to those of ordinary skill in the art that the parameters given herein for carrying out the enzymatic reaction may be varied. The enzymatic reaction can be carried out at a temperature of 37° C. in 20 mMTris/HCl buffer (pH 8.0) containing 3 mM dithiothreitol, 1-2 μg of EpiD (the concentration of which is determined according to the method of Bradford, Anal. Biochem. 72:248-254 (1976)), and 10-50 μg of peptide, in a total volume of 1 ml. The enzymatic reaction is carried out for between 0.5 and 1 h.
Purification of EpiD and Enzyme Assay--EpiD was purified as described previously using E. coli expression plasmid pT7-5apiD (Kupke, T. et al, J. Bacteriol. 174:5354-5361 (1992)). The concentration of the EpiD solution was determined according to Bradford (Bradford, M. M., Anal. Biochem. 72:248-254 (1976)); the concentrations of the precursor peptide solutions were estimated by the absorbance at 205 nm using an extinction coefficient of 31 for a protein solution of 1 mg/ml (Janson, J. C., & Ryden, L., Methods Enzymol. 193:441-455 (1990)); the synthetic peptic substrates were weighed out. The enzyme was assayed for 0.5-1 h at 37° C. in 20 mM Tris/HCl buffer (pH 8.0) containing 3 mM dithiothreitol, 1-2 μg of EpiD, and 10-25 μg of precursor peptide or 50 μg of synthetic peptide in a total volume of 1 ml. The reaction mixture was then separated by reversed phase chromatography using a μRPC C2/C18 SC 2.1/10 column (Pharmacia Biotech Inc.). Peptides were eluted with a linear gradient of 0-50% acetronitrile, 0.1% trifluoroacetic acid in 3.8 ml with a flow rate of 200 μl/min. The absorbance was measured simultaneously at 214, 260, and 280 nm. The peptides were collected by the peak fractionation method, dried with a vacuum concentrator, stored at -70° C., dissolved in 30% acetonitrile, and analyzed by ES-MS.

[3] = Determination of the isoelectric point by isoelectric focusing and immunoblot; format: physicochemical; conditions: most basic band used
Procedure: Therefore, the modified peptides should be more basic than the educts. In order to verify this hypothesis, the isoelectric points of the products and the educts were determined. […] All of the bands were more basic than the educts, and for determination of the isoelectric points, the most basic bands were used. In the case of EpiAR-1Q -46 Da, the most basic band was the most intense band.
The peptide mixture Serva No. 39211 was used as an isoelectric focusing standard. Isoelectric focusing was carried out according to the instruction manual of Serva. The focused peptides were blotted on nitrocellulose and detected with an anti-MBP-EpiA antiserum (Kupke, T., et al., FEMS Lett. 112:43-48 (1993)) using the ECL system (Amersham Corp.).

[4] = molecular target: T1, flavoprotein EpiD; assay: Incubation of peptide libraries with EpiD, ES-MS and neutral loss mass spectrometry; format: biochemical, Staphylococcus epidermis; conditions: ES-MS and neutral loss scans
Procedure: Heptapeptide sublibraries with one variable amino acid residue (wherein the variable amino acid residue can be any one of the 20 common amino acids Ala, Arg, Asn, Asp, Cys, Gln, Glu, Gly, His, Ile, Leu, Lys, Met, Phe, Pro, Ser, Thr, Trp, Tyr, or Val) at positions 1-7 of the peptide substrate S^1 FNSYCC^7 (SEQ ID NO: 2) were synthesized and incubated with EpiD. Peptides were identified by their masses using product ion scans and neutral loss scans and by comparison of the mass spectra obtained after various incubation times. The heptapeptides with a single amino acid substitution at positions 1-4 were substrates of EpiD (Table 2). At positions 5-7 of the peptide, not all amino acid residues were possible, so the last three amino acids determined the substrate specificity for EpiD (Table 2). […]
Peptide libraries were dissolved to a concentration of 1-2 mg/ml in 20 mM Tris/HCl buffer (pH 8.0) containing 3 mM dithiothreitol. […] Neutral loss scans were recorded after 3 h of incubation.
Electrospray and Tandem Mass Spectrometry--Electrospray mass spectra (Bruins, A. P., et al., Anal. Chem. 59:2642-2646 (1987); Covey, T. R., et al., Rapid Commun. Mass Spectrom. 2:249-256 (1988)) were recorded on a triple quadrupole mass spectrometer API III with a mass range of m/z 10-2400 equipped with a nebulizer-assisted electrospray ("ion spray") source (Sciex, Thornbill, Ontario, Canada). […]

T1 sequence (P30197 whole entry): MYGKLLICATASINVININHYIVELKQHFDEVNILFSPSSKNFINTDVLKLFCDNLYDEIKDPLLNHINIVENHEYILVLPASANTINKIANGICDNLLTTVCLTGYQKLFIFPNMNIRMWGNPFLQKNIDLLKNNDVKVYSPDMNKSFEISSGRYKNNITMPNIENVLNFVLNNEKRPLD
Chain of EpiD (P30197 whole entry): as above

Compound	Reaction with EpiD [2]	substrate of EpiD / reaction with EpiD (in words) [2]	other results
[Zn+2] [Zn^2+, reference compound]			effect on the EpiD reaction [1]: inhibited
EpiAC + 22S (MEAVKEKNDLFNLDVKVNAKESNDSGAEPRIASKFICTPGCAKTGSFNSYCC)	-	No reaction occurred	
EpiAR-1Q: mutated EpiA with a mutation in the cleavage sequence of the EpiA leader (MEAVKEKNDLFNLDVKVNAKESNDSGAEPRIASKFICTPGCAKTGSFNSYCC)	+		isoelectric point [3]: 5.0 pH; Reaction with EpiD [1]: reacts
EpiAS + 19A (MEAVKEKNDLFNLDVKVNAKESNDSGAEPRIASKFICTPGCAKTGSFNSYCC)	+	substrate for oxidative decarboxylation	
EpiAdesC^+22 (MEAVKEKNDLFNLDVKVNAKESNDSGAEPRIASKFICTPGCAKTGSFNSYC)	-	not all peptides with a COOH-terminal cysteine residue were a substrate of EpiD	
K-EpiA (MEAVKEKNDLFNLDVKVNAKESNDSGAEPRIASKFICTPGCAKTGSFNSYCC)	+		
Proepidermin: COOH-terminal proepidermin fragment of EpiA (amino acids +1 to +22) (IASKFICTPGCAKTGSFNSYCC)	+		Reaction with EpiD [1]: reacts
SFNSMCC			substrate of EpiD / reaction product in library (in words) [4]: weak
SFNSYCC--NH2 (SFNSYCC-NH2; cysteine pairing not given here) [the amide of SFNSYCC]	-	not substrates of EpiD	
SFNSYCHCy (SFNSYC[hCys]; cysteine pairing not given here) [peptide SFNSYC with COOH-terminal homocysteine residue]	-	not substrates of EpiD	
SFNSYGC	-		
Synthetic proepidermin: chemically synthesized proepidermin (amino acids +1 to +22 of EpiA) (IASKFICTPGCAKTGSFNSYCC)	+		
